Several values for one entry are separate records, joined by “and”; a condition that tells them apart may be missing. Equal entries are not always repeated. Where two headings read alike, the source gives them in different places.
T1: human centrin 1, full-length (human, UniProt Q12798 1-172)
T1 sequence: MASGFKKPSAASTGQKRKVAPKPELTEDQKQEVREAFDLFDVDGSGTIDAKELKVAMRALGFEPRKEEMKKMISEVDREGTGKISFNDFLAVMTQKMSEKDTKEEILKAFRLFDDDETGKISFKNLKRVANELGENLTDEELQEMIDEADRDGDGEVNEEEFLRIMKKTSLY

T2: human centrin 1 T138D, full-length (human, UniProt Q12798 1-172, T138D)
T2 sequence: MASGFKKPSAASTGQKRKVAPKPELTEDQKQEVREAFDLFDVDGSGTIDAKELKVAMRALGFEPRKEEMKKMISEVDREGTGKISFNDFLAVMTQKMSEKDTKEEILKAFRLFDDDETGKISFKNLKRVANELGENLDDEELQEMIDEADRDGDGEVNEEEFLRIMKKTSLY


Assays:
Assay in all cases: ITC
[1] = molecular target: T3, C-terminal domain of human centrin 2 T138D-S158D (human, UniProt P41208 93-172, T138D | S158D)
[2] = molecular target: T4, C-terminal domain of human centrin 2 S158D (human, UniProt P41208 93-172, S158D)
[3] = molecular target: T5, C-terminal domain of human centrin 2 T138D (human, UniProt P41208 93-172, T138D)
[4] = molecular target: T6, C-terminal domain of human centrin 2 (M93-Y172) (human, UniProt P41208 93-172)
[5] = molecular target: T1, human centrin 1, full-length
[6] = molecular target: T2, human centrin 1 T138D, full-length
[7] = molecular target: T7, C-terminal domain of human centrin 1 (M93-Y172) (human, UniProt Q12798 93-172)
[8] = molecular target: T1, human centrin 1, full-length; remark: listed apart in the source
[9] = molecular target: T2, human centrin 1 T138D, full-length; remark: listed apart in the source
[10] = molecular target: T3, C-terminal domain of human centrin 2 …; remark: listed apart in the source
[11] = molecular target: T4, C-terminal domain of human centrin 2 …; remark: listed apart in the source
[12] = molecular target: T5, C-terminal domain of human centrin 2 …; remark: listed apart in the source
[13] = molecular target: T6, C-terminal domain of human centrin 2 …; remark: listed apart in the source
[14] = molecular target: T7, C-terminal domain of human centrin 1 …; remark: listed apart in the source
[15] = molecular target: C-terminal domain of human centrin 1 T138D (human)

T6 sequence (P41208 93-172): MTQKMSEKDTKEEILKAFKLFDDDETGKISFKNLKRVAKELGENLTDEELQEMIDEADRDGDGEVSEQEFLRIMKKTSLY
T3 sequence (P41208 93-172 T138D/S158D): as the sequence (P41208 93-172) above, with T46D, S66D counted along it
T4 sequence (P41208 93-172 S158D): as the sequence (P41208 93-172) above, with S66D counted along it
T5 sequence (P41208 93-172 T138D): as the sequence (P41208 93-172) above, with T46D counted along it

Binder	dH [1]	stoichiometry N [1]	Ka [2]	dH [2]	stoichiometry N [2]	Ka [3]	dH [3]	stoichiometry N [3]	Ka [4]	dH [4]	stoichiometry N [4]	Ka [5]	dH [5]	Ka [7]	dH [7]	stoichiometry N [7]	dH [13]	stoichiometry N [13]	Ka [14]	dH [14]	other results
Ac-NWKLLAKGLLIRERLKR-NH2 [P17-XPC, 17-residue peptide of human XPC]	-23.9 kcal/mol	1.18	4.31e+07 M⁻¹	-23 kcal/mol	0.89	2.71e+07 M⁻¹	-24 kcal/mol	0.82	5.27e+07 M⁻¹	-23.4 kcal/mol	0.81	1.22e+07 M⁻¹	-28.4 kcal/mol	3.96e+07 M⁻¹	-23.3 kcal/mol	0.93	-29.3 kcal/mol	0.95	8.25e+06 M⁻¹	-28.1 kcal/mol	stoichiometry N [5]: 0.98; Ka [6]: 2.9e+06 M⁻¹; dH [6]: -30.2 kcal/mol; stoichiometry N [6]: 0.92; Ka [8]: 5.25e+07 M⁻¹; dH [8]: -28.4 kcal/mol; stoichiometry N [8]: 1.04; Ka [9]: 1.02e+08 M⁻¹; dH [9]: -28.5 kcal/mol; stoichiometry N [9]: 0.95; Ka [10]: 800000 M⁻¹; dH [10]: -26.8 kcal/mol; dH [11]: -23.8 kcal/mol; Ka [12]: 2.5e+06 M⁻¹; dH [12]: -32.7 kcal/mol; stoichiometry N [12]: 0.94; Ka [13]: 7.35e+06 M⁻¹
Ac-TVWAQLARHLVSHQHHLDAR-NH2 [HsSfi1R17inv, repeat 17 peptide of human Sfi1 in reversed sequence orientation]														1.49e+08 M⁻¹	-21.6 kcal/mol	0.8	-20.1 kcal/mol and -22 kcal/mol	0.91 and 1.09	690000 M⁻¹	-26.6 kcal/mol	stoichiometry N [14]: 0.825
Ac-MAVATGSWDSFLKIWN-NH2 [HsTrB, transducin β-derived peptide 325-340 (last WD repeat)]																					Ka [9]: 180000 M⁻¹; dH [9]: -8.14 kcal/mol; stoichiometry N [9]: 0.75; dH [15]: -9.97 kcal/mol
Ac-RADLHHQHSVLHRALQAWVT-NH2 [HsSfiR17, repeat 17 peptide of human Sfi1 (641-660)]	-22.4 kcal/mol	0.91	1.01e+08 M⁻¹	-25.9 kcal/mol	0.7	4.54e+07 M⁻¹	-24.3 kcal/mol	0.86	1.82e+07 M⁻¹	-20.2 kcal/mol	0.95	347000 M⁻¹	-19.2 kcal/mol	1.25e+08 M⁻¹	-18 kcal/mol	1.21	-31.3 kcal/mol	0.72	120000 M⁻¹	-43.1 kcal/mol	Ka [1]: 3.5e+07 M⁻¹; stoichiometry N [5]: 1.12; Ka [11]: 40000 M⁻¹; dH [11]: -38.5 kcal/mol; stoichiometry N [11]: 0.77; Ka [12]: 230000 M⁻¹; dH [12]: -9.76 kcal/mol; stoichiometry N [12]: 0.75; Ka [13]: 190000 M⁻¹; stoichiometry N [14]: 0.88

From publication PMC4050191 (FEBS Open Bio, 2014)
